The target of test [1] is Quenched-fluorescent peptide substrate fluorescein-5(6)-carbonyl-Ala-Glu-Leu-Asn-Gly-Arg-Pro-Ile-Ser-Ile-Ala-Lys(5(6)-TAMRA).
The target in test [2] is Versican V1-5GAG (truncated V1, residues 21-694) (UniProt P13611).
Test [3] concerns the target ADAMTS1 (Homo sapiens) (UniProt Q9UHI8). Conditions: cited from earlier work.
Test [4] has as its target Versican G3 (Homo sapiens) (UniProt P13611). Particulars: cited from earlier work.
The target of test [5] is Versican V1-5GAG (truncated V1, residues 21-694) (UniProt P13611). The source holds these as a separate data set.

Like-named read-outs stand apart in the source and are kept apart here.

For orientation: Kd means the concentration at which binding is half-saturated.

For the molecule “ADAMTS1 variant MD (truncated after the disintegrin-like domain) (domain or fragment)”, the kcat/Km for proteolysis of the QF peptide in test [1] is 6100 M⁻¹ s⁻¹. Besides, in test [2], the kcat/Km for cleavage of V1-5GAG (50 nM), time course with versikine ELISA was determined as 61 M⁻¹ s⁻¹.
On to “ADAMTS1 variant MDT (truncated after the central TSR motif) (domain or fragment)”, for which the kcat/Km for proteolysis of the QF peptide in test [1] is 6200 M⁻¹ s⁻¹. Also, in test [2], the kcat/Km for cleavage of V1-5GAG (50 nM), time course with versikine ELISA was 66 M⁻¹ s⁻¹.
Consider “ADAMTS1 variant MDTCS (truncated after the spacer domain) (domain or fragment)”, for which, in test [1], the kcat/Km for proteolysis of the QF peptide was 7600 M⁻¹ s⁻¹. Besides, the kcat/Km for cleavage of V1-5GAG (50 nM), time course with versikine ELISA in test [2] stood at 7300 M⁻¹ s⁻¹.
On to Fibulin-1 (from UniProt P23142), for which, in test [3], the dissociation constant Kd was 1000 nM.
For “Fibulin-1 domain II (from UniProt P23142)”, the dissociation constant Kd in test [4] was 26 nM.

B1: ADAMTS1 K735Q (β1-β2 loop of the spacer domain) (enzyme)
chain: FVSSHRYVETMLVADQSMAEFHGSGLKHYLLTLFSVAARLYKHPSIRNSVSLVVVKILVIHDEQKGPEVTSNAALTLRNFCNWQKQHNPPSDRDAEHYDTAILFTRQDLCGSQTCDTLGMADVGTVCDPSRSCSVIEDDGLQAAFTTAHELGHVFNMPHDDAKQCASLNGVNQDSHMMASMLSNLDHSQPWSPCSAYMITSFLDNGHGECLMDKPQNPIQLPGDLPGTSYDANRQCQFTFGEDSKHCPDAASTCSTLWCTGTSGGVLVCQTKHFPWADGTSCGEGKWCINGKCVNKTDRKHFDTPFHGSWGMWGPWGDCSRTCGGGVQYTMRECDNPVPKNGGKYCEGKRVRYRSCNLEDCPDNNGKTFREEQCEAHNEFSKASFGSGPAVEWIPKYAGVSPKDRCKLICQAKGIGYFFVLQPKVVDGTPCSPDSTSVCVQGQCVKAGCDRIIDSKKKFDKCGVCGGNGSTCKKISGSVTSAQPGYHDIITIPTGATNIEVKQRNQRGSRNNGSFLAIKAADGTYILNGDYTLSTLEQDIMYKGVVLRYSGSSAALERIRSFSPLKEPLTIQVLTVGNALRPKIKYTYFVKKKKESFNAIPTFSAWVIEEWGECSKSCELGWQRRLVECRDINGQPASECAKEVKPASTRPCADHPCPQWQLGEWSSCSKTCGKGYKKRSLKCLSHDGGVLSHESCDPLKKPKHFIDFCTMAECS
Regarding B1, the kcat/Km for cleavage of V1-5GAG (50 nM), time course with versikine ELISA in test [5] came to 4800 M⁻¹ s⁻¹.

B2: ADAMTS1 K818Q (β8-β9 loop of the spacer domain) (enzyme)
chain: FVSSHRYVETMLVADQSMAEFHGSGLKHYLLTLFSVAARLYKHPSIRNSVSLVVVKILVIHDEQKGPEVTSNAALTLRNFCNWQKQHNPPSDRDAEHYDTAILFTRQDLCGSQTCDTLGMADVGTVCDPSRSCSVIEDDGLQAAFTTAHELGHVFNMPHDDAKQCASLNGVNQDSHMMASMLSNLDHSQPWSPCSAYMITSFLDNGHGECLMDKPQNPIQLPGDLPGTSYDANRQCQFTFGEDSKHCPDAASTCSTLWCTGTSGGVLVCQTKHFPWADGTSCGEGKWCINGKCVNKTDRKHFDTPFHGSWGMWGPWGDCSRTCGGGVQYTMRECDNPVPKNGGKYCEGKRVRYRSCNLEDCPDNNGKTFREEQCEAHNEFSKASFGSGPAVEWIPKYAGVSPKDRCKLICQAKGIGYFFVLQPKVVDGTPCSPDSTSVCVQGQCVKAGCDRIIDSKKKFDKCGVCGGNGSTCKKISGSVTSAKPGYHDIITIPTGATNIEVKQRNQRGSRNNGSFLAIKAADGTYILNGDYTLSTLEQDIMYKGVVLRYSGSSAALERIRSFSPLQEPLTIQVLTVGNALRPKIKYTYFVKKKKESFNAIPTFSAWVIEEWGECSKSCELGWQRRLVECRDINGQPASECAKEVKPASTRPCADHPCPQWQLGEWSSCSKTCGKGYKKRSLKCLSHDGGVLSHESCDPLKKPKHFIDFCTMAECS
B2: the kcat/Km for cleavage of V1-5GAG (50 nM), time course with versikine ELISA in test [5] amounted to 6050 M⁻¹ s⁻¹.

B3: ADAMTS1 K735Q/K795Q (β1-β2 and β6-β7 loops of the spacer domain) (enzyme)
chain: FVSSHRYVETMLVADQSMAEFHGSGLKHYLLTLFSVAARLYKHPSIRNSVSLVVVKILVIHDEQKGPEVTSNAALTLRNFCNWQKQHNPPSDRDAEHYDTAILFTRQDLCGSQTCDTLGMADVGTVCDPSRSCSVIEDDGLQAAFTTAHELGHVFNMPHDDAKQCASLNGVNQDSHMMASMLSNLDHSQPWSPCSAYMITSFLDNGHGECLMDKPQNPIQLPGDLPGTSYDANRQCQFTFGEDSKHCPDAASTCSTLWCTGTSGGVLVCQTKHFPWADGTSCGEGKWCINGKCVNKTDRKHFDTPFHGSWGMWGPWGDCSRTCGGGVQYTMRECDNPVPKNGGKYCEGKRVRYRSCNLEDCPDNNGKTFREEQCEAHNEFSKASFGSGPAVEWIPKYAGVSPKDRCKLICQAKGIGYFFVLQPKVVDGTPCSPDSTSVCVQGQCVKAGCDRIIDSKKKFDKCGVCGGNGSTCKKISGSVTSAQPGYHDIITIPTGATNIEVKQRNQRGSRNNGSFLAIKAADGTYILNGDYTLSTLEQDIMYQGVVLRYSGSSAALERIRSFSPLKEPLTIQVLTVGNALRPKIKYTYFVKKKKESFNAIPTFSAWVIEEWGECSKSCELGWQRRLVECRDINGQPASECAKEVKPASTRPCADHPCPQWQLGEWSSCSKTCGKGYKKRSLKCLSHDGGVLSHESCDPLKKPKHFIDFCTMAECS
For the molecule B3, the kcat/Km for cleavage of V1-5GAG (50 nM), time course with versikine ELISA in test [5] was found to be 570 M⁻¹ s⁻¹.

B4: ADAMTS1 R756Q/R759Q/R762Q (β3-β4 loop of the spacer domain) (enzyme)
chain: FVSSHRYVETMLVADQSMAEFHGSGLKHYLLTLFSVAARLYKHPSIRNSVSLVVVKILVIHDEQKGPEVTSNAALTLRNFCNWQKQHNPPSDRDAEHYDTAILFTRQDLCGSQTCDTLGMADVGTVCDPSRSCSVIEDDGLQAAFTTAHELGHVFNMPHDDAKQCASLNGVNQDSHMMASMLSNLDHSQPWSPCSAYMITSFLDNGHGECLMDKPQNPIQLPGDLPGTSYDANRQCQFTFGEDSKHCPDAASTCSTLWCTGTSGGVLVCQTKHFPWADGTSCGEGKWCINGKCVNKTDRKHFDTPFHGSWGMWGPWGDCSRTCGGGVQYTMRECDNPVPKNGGKYCEGKRVRYRSCNLEDCPDNNGKTFREEQCEAHNEFSKASFGSGPAVEWIPKYAGVSPKDRCKLICQAKGIGYFFVLQPKVVDGTPCSPDSTSVCVQGQCVKAGCDRIIDSKKKFDKCGVCGGNGSTCKKISGSVTSAKPGYHDIITIPTGATNIEVKQQNQQGSQNNGSFLAIKAADGTYILNGDYTLSTLEQDIMYKGVVLRYSGSSAALERIRSFSPLKEPLTIQVLTVGNALRPKIKYTYFVKKKKESFNAIPTFSAWVIEEWGECSKSCELGWQRRLVECRDINGQPASECAKEVKPASTRPCADHPCPQWQLGEWSSCSKTCGKGYKKRSLKCLSHDGGVLSHESCDPLKKPKHFIDFCTMAECS
Regarding B4, the kcat/Km for cleavage of V1-5GAG (50 nM), time course with versikine ELISA in test [5] stood at 870 M⁻¹ s⁻¹.

B5: ADAMTS1 variant 828-835 (β9-β10 loop residues 828-835 replaced by ADAMTS4 residues 788-795) (enzyme)
chain: FVSSHRYVETMLVADQSMAEFHGSGLKHYLLTLFSVAARLYKHPSIRNSVSLVVVKILVIHDEQKGPEVTSNAALTLRNFCNWQKQHNPPSDRDAEHYDTAILFTRQDLCGSQTCDTLGMADVGTVCDPSRSCSVIEDDGLQAAFTTAHELGHVFNMPHDDAKQCASLNGVNQDSHMMASMLSNLDHSQPWSPCSAYMITSFLDNGHGECLMDKPQNPIQLPGDLPGTSYDANRQCQFTFGEDSKHCPDAASTCSTLWCTGTSGGVLVCQTKHFPWADGTSCGEGKWCINGKCVNKTDRKHFDTPFHGSWGMWGPWGDCSRTCGGGVQYTMRECDNPVPKNGGKYCEGKRVRYRSCNLEDCPDNNGKTFREEQCEAHNEFSKASFGSGPAVEWIPKYAGVSPKDRCKLICQAKGIGYFFVLQPKVVDGTPCSPDSTSVCVQGQCVKAGCDRIIDSKKKFDKCGVCGGNGSTCKKISGSVTSAKPGYHDIITIPTGATNIEVKQRNQRGSRNNGSFLAIKAADGTYILNGDYTLSTLEQDIMYKGVVLRYSGSSAALERIRSFSPLKEPLTIQVLTAGNPQDTRIKYTYFVKKKKESFNAIPTFSAWVIEEWGECSKSCELGWQRRLVECRDINGQPASECAKEVKPASTRPCADHPCPQWQLGEWSSCSKTCGKGYKKRSLKCLSHDGGVLSHESCDPLKKPKHFIDFCTMAECS
B5: the kcat/Km for cleavage of V1-5GAG (50 nM), time course with versikine ELISA in test [5] worked out at 410 M⁻¹ s⁻¹.

B6: ADAMTS1 K795Q (β6-β7 loop of the spacer domain) (enzyme)
chain: FVSSHRYVETMLVADQSMAEFHGSGLKHYLLTLFSVAARLYKHPSIRNSVSLVVVKILVIHDEQKGPEVTSNAALTLRNFCNWQKQHNPPSDRDAEHYDTAILFTRQDLCGSQTCDTLGMADVGTVCDPSRSCSVIEDDGLQAAFTTAHELGHVFNMPHDDAKQCASLNGVNQDSHMMASMLSNLDHSQPWSPCSAYMITSFLDNGHGECLMDKPQNPIQLPGDLPGTSYDANRQCQFTFGEDSKHCPDAASTCSTLWCTGTSGGVLVCQTKHFPWADGTSCGEGKWCINGKCVNKTDRKHFDTPFHGSWGMWGPWGDCSRTCGGGVQYTMRECDNPVPKNGGKYCEGKRVRYRSCNLEDCPDNNGKTFREEQCEAHNEFSKASFGSGPAVEWIPKYAGVSPKDRCKLICQAKGIGYFFVLQPKVVDGTPCSPDSTSVCVQGQCVKAGCDRIIDSKKKFDKCGVCGGNGSTCKKISGSVTSAKPGYHDIITIPTGATNIEVKQRNQRGSRNNGSFLAIKAADGTYILNGDYTLSTLEQDIMYQGVVLRYSGSSAALERIRSFSPLKEPLTIQVLTVGNALRPKIKYTYFVKKKKESFNAIPTFSAWVIEEWGECSKSCELGWQRRLVECRDINGQPASECAKEVKPASTRPCADHPCPQWQLGEWSSCSKTCGKGYKKRSLKCLSHDGGVLSHESCDPLKKPKHFIDFCTMAECS
Turning to B6, in test [5], the kcat/Km for cleavage of V1-5GAG (50 nM), time course with versikine ELISA amounted to 730 M⁻¹ s⁻¹.

B7: ADAMTS1 variant 756-765/828-835 (β3-β4 and β9-β10 loops replaced by those of ADAMTS4) (enzyme)
chain: FVSSHRYVETMLVADQSMAEFHGSGLKHYLLTLFSVAARLYKHPSIRNSVSLVVVKILVIHDEQKGPEVTSNAALTLRNFCNWQKQHNPPSDRDAEHYDTAILFTRQDLCGSQTCDTLGMADVGTVCDPSRSCSVIEDDGLQAAFTTAHELGHVFNMPHDDAKQCASLNGVNQDSHMMASMLSNLDHSQPWSPCSAYMITSFLDNGHGECLMDKPQNPIQLPGDLPGTSYDANRQCQFTFGEDSKHCPDAASTCSTLWCTGTSGGVLVCQTKHFPWADGTSCGEGKWCINGKCVNKTDRKHFDTPFHGSWGMWGPWGDCSRTCGGGVQYTMRECDNPVPKNGGKYCEGKRVRYRSCNLEDCPDNNGKTFREEQCEAHNEFSKASFGSGPAVEWIPKYAGVSPKDRCKLICQAKGIGYFFVLQPKVVDGTPCSPDSTSVCVQGQCVKAGCDRIIDSKKKFDKCGVCGGNGSTCKKISGSVTSAKPGYHDIITIPTGATNIEVKQQGNPGHRSSFLAIKAADGTYILNGDYTLSTLEQDIMYKGVVLRYSGSSAALERIRSFSPLKEPLTIQVLTAGNPQDTRIKYTYFVKKKKESFNAIPTFSAWVIEEWGECSKSCELGWQRRLVECRDINGQPASECAKEVKPASTRPCADHPCPQWQLGEWSSCSKTCGKGYKKRSLKCLSHDGGVLSHESCDPLKKPKHFIDFCTMAECS
Regarding B7, the kcat/Km for cleavage of V1-5GAG (50 nM), time course with versikine ELISA in test [5] was determined as 460 M⁻¹ s⁻¹.

The record behind these values is PMC10033314.
